Here are results for ten molecules from publication PMC5116745, “Importance of the C-terminal histidine residues of Helicobacter pylori GroES for Toll-like receptor 4 binding and interleukin-8 cytokine production” (Scientific Reports, 2016).

The Kd is the free concentration of one partner at which half of the binding sites on the other are occupied at equilibrium, for simple one-to-one binding. A word on the stoichiometry N: it is the number of molecules, sites or subunits per partner or assembly.

In data set [1] the target is recombinant human TLR4 protein (human) (UniProt O00206). Put plainly: SPR; Biacore T200; TLR4 immobilised on CM5 chip (6000 RU); HpGroES proteins flowed at 7.8125-1000 nM, 30 μl/min, 25 °C; PBS with 0.05% P20; Kd from saturation curves (GraphPad Prism).
Sequence of recombinant human TLR4 protein (human) (O00206 24-631): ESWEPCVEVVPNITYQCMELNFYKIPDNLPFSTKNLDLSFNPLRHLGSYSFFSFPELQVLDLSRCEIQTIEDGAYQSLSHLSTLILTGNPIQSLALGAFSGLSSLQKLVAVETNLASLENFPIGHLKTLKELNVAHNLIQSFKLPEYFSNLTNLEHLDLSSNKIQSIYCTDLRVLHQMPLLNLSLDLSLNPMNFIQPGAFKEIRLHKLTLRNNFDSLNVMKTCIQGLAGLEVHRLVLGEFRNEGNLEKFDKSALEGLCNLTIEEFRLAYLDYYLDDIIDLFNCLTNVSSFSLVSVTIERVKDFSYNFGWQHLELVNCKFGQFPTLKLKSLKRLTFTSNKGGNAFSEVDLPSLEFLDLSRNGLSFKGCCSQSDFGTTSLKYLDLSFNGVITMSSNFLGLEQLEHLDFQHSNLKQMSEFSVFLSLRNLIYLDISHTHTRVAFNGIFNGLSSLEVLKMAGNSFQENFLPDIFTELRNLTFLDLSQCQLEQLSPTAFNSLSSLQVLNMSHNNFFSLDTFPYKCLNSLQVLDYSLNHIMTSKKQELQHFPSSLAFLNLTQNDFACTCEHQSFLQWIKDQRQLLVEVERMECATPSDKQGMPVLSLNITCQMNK
The target of data set [2] is T1, recombinant human TLR4 protein (human, UniProt O00206 24-631).
T1 construct: Toll-like receptor 4, human, recombinant protein from R&D Systems; R&D Systems' recombinant human TLR4 is, as far as recalled, the extracellular domain with a His tag (some products are a complex with MD-2); also called Toll-like receptor 4; source: bought: R&D Systems
T1 sequence (O00206 24-631): as above
The description is as above. Particulars: both partners purified.

Data set [3] concerns the molecule itself. The data set can be described thus: SEC; HiLoad 16/600 Superdex 200 pg; 150 mM NaCl, 25 mM potassium phosphate pH 7.4, 1 mM DTT, 0.3% glycerol; 2 ml/min.

As to “HpGroES H100A mutant (from UniProt P0A0R3 1-118) (natural protein)”, in data set [1], the Kd was more than 1 µM.

B1: Helicobacter pylori GroES (HpGroES), wild type (natural protein)
chain: MKFQPLGERVLVERLEEENKTSSGIIIPDNAKEKPLMGVVKAVSHKISEGCKCVKEGDVIAFGKYKGAEIVLDGTEYMVLELEDILGIVGSGSCCHTGNHDHKHAKEHEACCHDHKKH
notes: GroES (HspA) of Helicobacter pylori; domain A plus C-terminal domain B (residues 91-118); Protein was dialysed with 4 molar equivalents of NiSO4 before size exclusion (nickel-loaded); also called WT; heat shock protein (HSP) A; source: E. coli M15 (pQE30), purified (Ni2+-chelating Sepharose, Superdex 200 size exclusion)
As for B1, the Kd in data set [2] was determined as 0.1 µM. The “stoichiometry N” value in data set [3] turned out to be 7.

B2: HpGroES H104A mutant (natural protein, Helicobacter pylori, UniProt P0A0R3 1-118, looked up)
chain: MKFQPLGERVLVERLEEENKTSSGIIIPDNAKEKPLMGVVKAVSHKISEGCKCVKEGDVIAFGKYKGAEIVLDGTEYMVLELEDILGIVGSGSCCHTGNHDHKAAKEHEACCHDHKKH
notes: GroES (HspA) of Helicobacter pylori with a point mutation in domain B; Same construct as m1 with the mutation; nickel-loaded during purification; source: E. coli M15 (pQE30), purified (Ni2+-chelating Sepharose, Superdex 200 size exclusion)
Consider B2, for which, in data set [2], the dissociation constant (Kd) was determined as 0.1 µM. Besides, the “stoichiometry N” value in data set [3] was 7.

B3: HpGroES H96A mutant (natural protein, Helicobacter pylori, UniProt P0A0R3 1-118, looked up)
chain: MKFQPLGERVLVERLEEENKTSSGIIIPDNAKEKPLMGVVKAVSHKISEGCKCVKEGDVIAFGKYKGAEIVLDGTEYMVLELEDILGIVGSGSCCATGNHDHKHAKEHEACCHDHKKH
notes: as for B2
For the molecule B3, the Kd in data set [2] is 0.11 µM. For the same molecule, the “stoichiometry N” value in data set [3] was 7.

B4: HpGroES H108A mutant (natural protein, Helicobacter pylori, UniProt P0A0R3 1-118, looked up)
chain: MKFQPLGERVLVERLEEENKTSSGIIIPDNAKEKPLMGVVKAVSHKISEGCKCVKEGDVIAFGKYKGAEIVLDGTEYMVLELEDILGIVGSGSCCHTGNHDHKHAKEAEACCHDHKKH
notes: as for B2
Consider B4, for which, in data set [2], the Kd was more than 1 µM. For the same molecule, the “stoichiometry N” value in data set [3] was 7.

B5: HpGroES H115A mutant (natural protein, Helicobacter pylori, UniProt P0A0R3 1-118, looked up)
chain: MKFQPLGERVLVERLEEENKTSSGIIIPDNAKEKPLMGVVKAVSHKISEGCKCVKEGDVIAFGKYKGAEIVLDGTEYMVLELEDILGIVGSGSCCHTGNHDHKHAKEHEACCHDAKKH
notes: as for B2
For the molecule B5, the Kd in data set [2] came out at 0.15 µM. Also, the “stoichiometry N” value in data set [3] was 7.

B6: HpGroES H102A mutant (natural protein, Helicobacter pylori, UniProt P0A0R3 1-118, looked up)
chain: MKFQPLGERVLVERLEEENKTSSGIIIPDNAKEKPLMGVVKAVSHKISEGCKCVKEGDVIAFGKYKGAEIVLDGTEYMVLELEDILGIVGSGSCCHTGNHDAKHAKEHEACCHDHKKH
notes: as for B2
On to B6, for which, in data set [2], the Kd is more than 1 µM. Further, the “stoichiometry N” value in data set [3] is 7.

B7: HpGroES H113A mutant (natural protein, Helicobacter pylori, UniProt P0A0R3 1-118, looked up)
chain: MKFQPLGERVLVERLEEENKTSSGIIIPDNAKEKPLMGVVKAVSHKISEGCKCVKEGDVIAFGKYKGAEIVLDGTEYMVLELEDILGIVGSGSCCHTGNHDHKHAKEHEACCADHKKH
notes: as for B2
For B7, the Kd in data set [2] was more than 1 µM. Besides, in data set [3], the “stoichiometry N” value came to 7.

B8: HpGroES H100A mutant (natural protein, Helicobacter pylori, UniProt P0A0R3 1-118, looked up)
chain: MKFQPLGERVLVERLEEENKTSSGIIIPDNAKEKPLMGVVKAVSHKISEGCKCVKEGDVIAFGKYKGAEIVLDGTEYMVLELEDILGIVGSGSCCHTGNADHKHAKEHEACCHDHKKH
notes: as for B2
Consider B8, for which the “stoichiometry N” value in data set [3] stood at 7.

B9: HpGroES H118A mutant (natural protein, Helicobacter pylori, UniProt P0A0R3 1-118, looked up)
chain: MKFQPLGERVLVERLEEENKTSSGIIIPDNAKEKPLMGVVKAVSHKISEGCKCVKEGDVIAFGKYKGAEIVLDGTEYMVLELEDILGIVGSGSCCHTGNHDHKHAKEHEACCHDHKKA
notes: as for B2
With B9, in data set [2], the Kd is more than 1 µM. The “stoichiometry N” value in data set [3] worked out at 7.
